Target: the molecule itself
Assay: SDS-resistant high molecular mass complex on SDS-PAGE

B1: GABAA receptor γ2S(Q351X)^FLAG subunit (domain or fragment, human, UniProt P18507-1 40-389, looked up)
chain: QKSDDDYEDYASNKTWVLTPKVPEGDVTVILNNLLEGYDNKLRPDIGVKPTLIHTDMYVNSIGPVNAINMEYTIDIFFAQTWYDRRLKFNSTIKVLRLNSNMVGKIWIPDTFFRNSKKADAHWITTPNRMLRIWNDGRVLYTLRLTIDAECQLQLHNFPMDEHSCPLEFSSYGYPREEIVYQWKRSSVEVGDTRSWRLYQFSFVGLRNTTEVVKTTSGDYVVMSVYFDLSRRMGYFTIQTYIPCTLIVVLSWVSFWINKDAVPARTSLGITTVLTMTTLSTIARKSLPKVSYVTAMDLFVSVCFIFVFSALVEYGTLHYFVSNRKPSKDKDKKKKNPAPTIDIRPRSATI
stoichiometry N: 2

— PMC2976503 (The Journal of neuroscience : the official journal of the …, 2010)
